From US20200102389A1 (Hoffmann-La Roche, published 2020) come the findings set out here.

For experiment [1], the target named is T1, recombinant soluble human HLA-G β2M MHC class I complex, monomer (human).
T1 construct: His tagged; also called HLA-G-0003
As to the kind of experiment: blocking ELISA, Fc tagged ILT4 coated, 100 nM antibody, soluble HLA-G monomer. As for the experimental part:
(§1) The ELISA was set up by coating the Fc tagged ILT2 and ILT4 respectively to Maxisorp microtiter plates. After incubation and washing steps, the respective antibodies were added at a concentration of 100nM. Soluble His tagged monomeric, dimeric or trimeric HLA-G was added to the wells. After incubation and washing steps, detection of bound receptor was carried out by anti-His-antibody-POD conjugates.

Experiment [2] deals with T2, modified human HLA-G β2M MHC class I complex (HLA-G specific amino acids replaced by HLA-A consensus amino … (human)).
T2 construct: also called degrafted HLA-G
As to the kind of experiment: SPR (Biacore T200), antibody captured via anti-Fc, degrafted HLA-G complex injected, 25 C, 1:1 fit. As for the experimental part: (§2) Binding kinetics of anti-HLA-G antibodies to human HLA-G, human HLA-G degrafted and human HLA-A2 were investigated by surface plasmon resonance using a BIACORE T200 instrument (GE Healthcare). All experiments were performed at 25° C. using PBS Buffer (pH 7.4+0.05% Tween20) as running buffer and PBS Buffer (+0.1% BSA) as dilution buffer. Anti-human Fc (JIR009-005-098, Jackson) or anti-rat Fc (JIR112-005-071, Jackson) or anti-Mouse Fc (JIR115-005-071, Jackson) antibodies were immobilized on a Series S CM5 Sensor Chip (GE Healthcare) at pH 5.0 by using an amine coupling kit supplied by GE Healthcare. Anti-HLA-G antibodies were captured on the surface leading to a capturing response of 50-200 RU. HLA-G molecules were injected for 180 s at 30 μl/min with concentrations from 2.5 up to 800 nM (2×1:2 and 4×1:3 dilution series) onto the surface (association phase). The dissociation phase was monitored for 300-600 sec by washing with running buffer. […] Bulk refractive index differences were corrected by subtracting the response obtained from a mock surface. Blank injections were subtracted (double referencing). The derived curves were fitted to a 1:1 Langmuir binding model using the BIAevaluation software.
(§3) The above table summarizes the antibody affinities and t1/2 values against wt and degrafted HLA-G as assessed by Surface plasmon resonance (Biacore) analysis. Binding kinetics of anti-HLA-G antibodies to human HLA-G, human HLA-G degrafted and human HLA-A2 were investigated by surface plasmon resonance using a BIACORE T200 instrument (GE Healthcare). All experiments were performed at 25° C. using PBS Buffer (pH 7.4+0.05% Tween20) as running buffer and PBS Buffer (+0.1% BSA) as dilution buffer. Anti-human Fc (JIR009-005-098, Jackson) or anti-rat Fc (JIR112-005-071, Jackson) or anti-Mouse Fc (JIR115-005-071, Jackson) antibodies were immobilized on a Series S CM5 Sensor Chip (GE

The target of experiment [3] is T1, recombinant soluble human HLA-G β2M MHC …. Briefly: SPR (Biacore T200), antibody captured via anti-Fc, HLA-G complex injected, 25 C, 1:1 fit. Here is the method: as §2, §3
Experiment [4] has as its target T3, recombinant soluble human HLA-G β2M MHC class I complex, trimer (human).
T3 construct: also called HLA-G Trimer; fraction A8
Briefly: blocking ELISA, Fc tagged ILT2 coated, 100 nM antibody, soluble HLA-G trimer. As for the experimental part:
as §1

The target in experiment [5] is T2, modified human HLA-G β2M MHC class I …. Briefly: SPR (Biacore T200), antibody captured, HLA-G complex injected. On the technique in general: In SPR one partner is held on a chip, and binding of the other changes the refractive index at the surface.
Experiment [6] has as its target T4, recombinant soluble human HLA-G β2M MHC class I complex, dimer (human).
T4 construct: also called HLA-G Dimer; fraction A9
As to the kind of experiment: competition ELISA, immobilised HLA-G dimer, antibody titrated, competitor c-myc ILT4. Here is the method:
The ELISA was set up by coating the biotinylated antigen wt HLA-G to strepdavidin plates. After incubation and washing steps, the respective antibodies were bound in a concentration range from 8-0 μg in 1:3 dilution steps. C-myc tagged ILT-2 or -4 receptor was added to the HLA-G-antibody complexes. After incubation and washing steps, detection of bound receptor was carried out by anti-cmyc-antibody-POD conjugates. IC50 values were determined from the resulting inhibition curves at the antibody concentrations generating the half-maximal inhibition. In case of the non-biotinylated HLA-G dimer and trimer antigens, immobilization was carried out by random coating on assay plates.
On the technique in general: ELISA stands for enzyme-linked immunosorbent assay.

B1: HLA-G-0037 (antibody, V domains shown)
VH: QVQLKESGPGLVQPSQTLSLTCSVSGFSLTTYSVSWVRQPPGKGLEWIGAIWSGGSTDYNSALKSRLRISRDTSKSQVLLKMNSLQTEDRAMYFCVRMNNKFGYWYFDLWGPGTMVTVSS
VL: DTVLTQSPTLAVSPGEKITISCRASETVSTMLHWYQQKPGQQPKLLISLASHLESGVPARFTGSGSGTDFTLTIDPVEADDTATYYCQQTWNDPLTFGSGTKLEIK
What is called Kd is the concentration at which binding is half-saturated. A word on the koff: it is the rate constant with which the complex falls apart. For orientation: kon means the second-order rate constant of association. Consider B1, for which the “% inh. ILT4” value in experiment [1] is 1%. Further, in experiment [2], binding was put at a Kd of 2120 nM, the koff was found to be 0.116 s⁻¹, the kon came to 54700 M⁻¹ s⁻¹ and the “t ½” value was 0.1 min. In experiment [3], the Kd was found to be 6.75 nM, the koff worked out at 0.000882 s⁻¹, the on-rate (kon) came to 131000 M⁻¹ s⁻¹ and the “t ½” value was determined as 13 min. For the same molecule, in experiment [4], the “% inh. ILT2” value amounted to 93%.

B2: HLA-G-0032 (antibody, V domains shown)
VH: QVQLQQSGAELVKPGSSVKISCKASGYSFPSYDMHWIKQQPGNGLEWIGWIYPGNGNTKYNQKFNGKASLTADKSSSTAYMQLSSLTSEDSAVYFCAKPTVATRYNWFAYWGQGTLVTVSS
VL: QIVLTQSPALMSASPGEKVTMTCSASSSVNYMHWYQQKPRSSPKPWIYLTSNLASGVPARFSGSGSGTSYSLTISTMEAEDAATYYCQQWSSNLPITFGSGTKLEIK
Usually IC50 stands for the concentration needed to halve the response being measured. As for B2, in experiment [5], the binding result is reported as “no binding (tested: 2.5 up to 800 nM)”. In addition, the “% inh. ILT4” value in experiment [1] stood at 12%. For the same molecule, in experiment [3], the Kd turned out to be 14.9 nM, the koff was determined as 0.00076 s⁻¹, the kon is 51200 M⁻¹ s⁻¹ and the “t ½” value came to 15 min. For the same molecule, in experiment [4], the “% inh. ILT2” value turned out to be 93%. For the same molecule, the IC50 in experiment [6] amounted to 50.3 nM.

B3: HLA-G-0033 (antibody, V domains shown)
VH: EVQLVETGGGLVQSGRSLKLSCVASGFTFNDYWMTWTRQAPGKGLEWVASITNSGGRTYYLDSVRGRFTISRDDAQNTLYLQMNSLRSEDTATYYCTKERIYLTAYWFFDFWGPGTMVTVSS
VL: DTILTQSPALAVSPGERVTISCRASESVSTLIHWYQQKPGQRPKLLIYLASHLESGVPARFSGSGSGTDFTLTIDPVEADDTATYYCQQSWNEPRTFGGGTKLELK
As to B3, the “% inh. ILT4” value in experiment [1] amounted to 14%. Besides, in experiment [2], the Kd was 3.62 nM, the koff amounted to 0.0345 s⁻¹, the kon came to 9.54e+06 M⁻¹ s⁻¹ and the “t ½” value was found to be 0.3 min. Also, in experiment [3], the Kd amounted to 31.5 nM, the koff was 0.00165 s⁻¹, the kon was determined as 52300 M⁻¹ s⁻¹ and the “t ½” value amounted to 7 min. Also, in experiment [4], the “% inh. ILT2” value was 93%. Further, the IC50 in experiment [6] stood at 31.3 nM.
